Laboratory results: US5262522

Tests used:
[1] = biological target: Receptor comprising gp130 (B10G) and LIF-R (pHLIFR-65) co-expressed on COS-7 cells (human); test: Scatchard analysis of 125I-oncostatin M binding to COS-7 cells co-transfected with B10G and pHLIFR-65 (curve A of FIG. 2), phthalate oil separation
[2] = biological target: High affinity oncostatin M receptors on non-transfected COS-7 cells; test: Scatchard analysis of 125I-oncostatin M binding to non-transfected COS-7 cells (FIG. 3 experiment), phthalate oil separation
[3] = biological target: T1, Human gp130 encoded by plasmid B10G, expressed on COS-7 cells (human); test: Scatchard analysis of 125I-oncostatin M binding to COS-7 cells transfected with B10G alone (FIG. 3 experiment), phthalate oil separation
T1 sequence: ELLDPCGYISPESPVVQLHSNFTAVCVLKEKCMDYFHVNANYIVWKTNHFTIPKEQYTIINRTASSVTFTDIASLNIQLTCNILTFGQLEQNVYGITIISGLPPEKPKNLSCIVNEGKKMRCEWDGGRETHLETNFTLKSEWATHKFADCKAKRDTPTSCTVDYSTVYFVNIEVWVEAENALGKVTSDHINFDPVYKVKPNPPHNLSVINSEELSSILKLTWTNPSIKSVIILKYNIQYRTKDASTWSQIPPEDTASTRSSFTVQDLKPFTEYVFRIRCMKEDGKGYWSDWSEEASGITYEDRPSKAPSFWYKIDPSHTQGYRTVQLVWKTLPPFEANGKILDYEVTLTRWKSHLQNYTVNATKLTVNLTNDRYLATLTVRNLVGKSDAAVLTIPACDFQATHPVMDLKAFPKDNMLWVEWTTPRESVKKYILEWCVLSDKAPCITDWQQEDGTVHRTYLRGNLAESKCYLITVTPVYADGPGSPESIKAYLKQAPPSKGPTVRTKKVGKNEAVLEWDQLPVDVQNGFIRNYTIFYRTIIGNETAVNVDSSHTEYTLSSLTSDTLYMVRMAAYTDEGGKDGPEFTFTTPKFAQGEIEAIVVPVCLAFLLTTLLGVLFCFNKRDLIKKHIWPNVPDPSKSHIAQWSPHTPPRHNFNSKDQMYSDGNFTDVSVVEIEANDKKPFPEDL

B1: Oncostatin M (ligand, UniProt P13725 26-221, looked up, species assumed)
Oncostatin-M: AAIGSCSKEYRVLLGQLQKQTDLMQDTSRLLDPYIRIQGLDVPKLREHCRERPGAFPSEETLRGLGRRGFLQTLNATLGCVLHRLADLEQRLPKAQDLERSGLNIEDLEKLQMARPNILGLRNNIYCMAQLLDNSDTAEPTKAGRGASQPPTPTPASDAFQRKLEGCRFLHGYHRFMHSVGRVFSKWGESPNRSRR
modifications: 125I label in some uses
[1]
  Kd: 0.24 nM
[2]
  Kd: 0.36 nM
[3]
  Kd: 7.7 nM
